The numbers were not newly measured in publication PMC8070608, which cites them from elsewhere.

Like-named read-outs stand apart in the source and are kept apart here.

Data set [1] deals with tPA (Homo sapiens) (UniProt P00750).
Data set [2] has as its target plasminogen (Homo sapiens) (UniProt P00747).
Data set [3] addresses tPA (Homo sapiens) (UniProt P00750). This is another data set of the same source.

Sequence of UniProt P00750 (P00750 36-562): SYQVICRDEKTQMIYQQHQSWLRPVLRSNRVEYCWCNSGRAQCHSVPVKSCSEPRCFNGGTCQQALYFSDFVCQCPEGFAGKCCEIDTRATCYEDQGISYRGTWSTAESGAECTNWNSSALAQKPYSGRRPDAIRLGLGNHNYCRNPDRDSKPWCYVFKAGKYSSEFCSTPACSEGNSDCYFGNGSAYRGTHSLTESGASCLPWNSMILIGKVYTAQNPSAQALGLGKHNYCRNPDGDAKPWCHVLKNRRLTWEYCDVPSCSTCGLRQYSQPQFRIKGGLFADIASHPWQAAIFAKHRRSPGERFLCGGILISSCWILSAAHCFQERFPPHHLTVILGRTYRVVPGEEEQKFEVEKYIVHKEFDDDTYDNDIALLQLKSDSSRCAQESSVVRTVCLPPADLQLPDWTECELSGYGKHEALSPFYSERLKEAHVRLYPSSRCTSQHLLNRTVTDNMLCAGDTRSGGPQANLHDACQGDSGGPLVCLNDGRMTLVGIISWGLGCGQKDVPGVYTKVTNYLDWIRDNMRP
Sequence of UniProt P00747 (P00747 20-810): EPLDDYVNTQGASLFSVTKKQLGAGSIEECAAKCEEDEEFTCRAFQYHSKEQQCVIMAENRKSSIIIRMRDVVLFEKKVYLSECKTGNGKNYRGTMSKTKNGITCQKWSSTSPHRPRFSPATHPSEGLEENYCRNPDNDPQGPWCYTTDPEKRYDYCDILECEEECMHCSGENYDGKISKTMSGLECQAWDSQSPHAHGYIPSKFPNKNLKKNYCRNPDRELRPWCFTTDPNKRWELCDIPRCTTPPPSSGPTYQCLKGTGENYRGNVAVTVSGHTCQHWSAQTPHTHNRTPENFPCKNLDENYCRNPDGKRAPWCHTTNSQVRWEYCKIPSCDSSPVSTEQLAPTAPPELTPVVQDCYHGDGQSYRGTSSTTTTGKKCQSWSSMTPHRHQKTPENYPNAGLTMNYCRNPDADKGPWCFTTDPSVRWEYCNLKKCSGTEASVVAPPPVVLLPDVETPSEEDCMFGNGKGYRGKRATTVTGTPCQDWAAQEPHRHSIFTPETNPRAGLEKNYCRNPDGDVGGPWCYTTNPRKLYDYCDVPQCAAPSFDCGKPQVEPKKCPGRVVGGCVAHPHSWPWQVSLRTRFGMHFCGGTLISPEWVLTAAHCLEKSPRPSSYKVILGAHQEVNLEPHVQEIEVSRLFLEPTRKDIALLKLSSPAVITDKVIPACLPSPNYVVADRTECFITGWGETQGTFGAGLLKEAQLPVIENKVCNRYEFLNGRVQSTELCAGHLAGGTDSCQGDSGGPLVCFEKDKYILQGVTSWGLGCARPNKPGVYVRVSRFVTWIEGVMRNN

Usually Kd stands for the constant that tells how readily two partners part at equilibrium. p36 (annexin A2) (from UniProt P07355): the Kd in the data set with tPA (Homo sapiens) [1] is 48 nM.
For p11 (from UniProt P60903), the Kd was 110 nM in data set [2] and 680 nM with tPA (Homo sapiens) [3].
